The numbers were not newly measured in PMC9739371, “Deciphering the Binding of the Nuclear Localization Sequence of Myc Protein to the Nuclear Carrier Importin α3” (International Journal of Molecular Sciences, 2022), which cites them from elsewhere.

pKd: −log10 of the molar value.

The data set has as its target NLS-Myc (GFP fusion) NLS (Homo sapiens) (UniProt P01106).

Chain of yeast ΔImpα ΔIBB (Q02821 1-68, stated change not applied): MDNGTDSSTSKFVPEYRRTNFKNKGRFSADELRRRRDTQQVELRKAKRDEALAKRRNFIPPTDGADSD
Chain of NLS-Myc (GFP fusion) NLS (Homo sapiens) (P01106 whole entry, looked up, the tested form may be a part): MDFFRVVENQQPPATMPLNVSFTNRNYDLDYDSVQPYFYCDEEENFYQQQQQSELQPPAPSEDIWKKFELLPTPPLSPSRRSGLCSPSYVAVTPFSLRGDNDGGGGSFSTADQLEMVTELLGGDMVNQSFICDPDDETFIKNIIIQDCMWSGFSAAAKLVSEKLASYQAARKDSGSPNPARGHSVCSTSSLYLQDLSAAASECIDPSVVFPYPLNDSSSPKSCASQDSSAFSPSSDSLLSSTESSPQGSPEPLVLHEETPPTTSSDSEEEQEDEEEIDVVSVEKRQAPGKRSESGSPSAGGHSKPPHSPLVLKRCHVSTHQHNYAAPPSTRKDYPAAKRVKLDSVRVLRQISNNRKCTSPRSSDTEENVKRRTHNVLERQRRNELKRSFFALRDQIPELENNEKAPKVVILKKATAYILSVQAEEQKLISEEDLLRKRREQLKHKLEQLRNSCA

As for yeast ΔImpα ΔIBB (from UniProt Q02821), the negative-log Kd (pKd) is 8.22.

For orientation: pKd means −log10 of the Kd, conventionally taken in molar units.
